This is an account of results in patent US20210238276A1 (INTEGRAL MOLECULAR, published 2021).

The target in assay [1] is T1, hsGLUT4 E345Q (human, UniProt P14672 1-509).
T1 construct: also called inward-open lock mutant
T1 sequence: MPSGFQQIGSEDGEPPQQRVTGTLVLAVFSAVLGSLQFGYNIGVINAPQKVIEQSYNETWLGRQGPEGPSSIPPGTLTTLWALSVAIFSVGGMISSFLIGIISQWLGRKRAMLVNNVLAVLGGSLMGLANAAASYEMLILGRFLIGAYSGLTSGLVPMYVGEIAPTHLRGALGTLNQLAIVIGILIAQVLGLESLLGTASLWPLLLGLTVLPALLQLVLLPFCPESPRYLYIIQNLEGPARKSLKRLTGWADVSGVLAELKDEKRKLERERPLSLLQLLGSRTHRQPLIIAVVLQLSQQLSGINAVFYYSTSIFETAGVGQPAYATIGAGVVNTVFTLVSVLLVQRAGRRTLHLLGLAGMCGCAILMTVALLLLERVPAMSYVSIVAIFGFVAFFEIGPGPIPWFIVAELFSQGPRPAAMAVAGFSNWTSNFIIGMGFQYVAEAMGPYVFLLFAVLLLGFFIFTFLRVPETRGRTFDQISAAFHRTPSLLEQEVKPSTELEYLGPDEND
As to the kind of experiment: flow cytometry, mutant in HEK-293T.

The target of assay [2] is T2, hsGLUT4 Y309I (human, UniProt P14672 1-509).
T2 construct: The running text prints 'Y3091'; also called Y3091 (as printed in the running text); outward-open lock mutant
T2 sequence: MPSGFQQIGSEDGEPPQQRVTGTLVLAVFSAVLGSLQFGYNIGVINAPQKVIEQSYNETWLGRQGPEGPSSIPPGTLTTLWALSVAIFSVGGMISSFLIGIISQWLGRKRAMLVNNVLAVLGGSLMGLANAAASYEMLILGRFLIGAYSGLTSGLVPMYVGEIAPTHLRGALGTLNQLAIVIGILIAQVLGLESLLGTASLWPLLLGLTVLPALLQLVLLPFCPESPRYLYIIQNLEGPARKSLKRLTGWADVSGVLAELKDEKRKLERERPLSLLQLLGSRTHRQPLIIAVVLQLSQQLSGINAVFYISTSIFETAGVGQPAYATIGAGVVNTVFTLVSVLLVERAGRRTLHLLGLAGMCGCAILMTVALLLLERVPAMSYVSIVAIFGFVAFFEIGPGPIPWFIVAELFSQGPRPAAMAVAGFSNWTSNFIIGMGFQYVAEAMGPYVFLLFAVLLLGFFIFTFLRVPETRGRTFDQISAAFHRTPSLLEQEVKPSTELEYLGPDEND
The assay is described as follows: flow cytometry, mutant in HEK-293T. For orientation: In flow cytometry, cells or beads pass a laser one at a time.

In assay [3] the target is T3, human GLUT1 (hsGLUT1) (human, UniProt P11166 1-492).
T3 construct: whole, on cells
T3 sequence (looked up): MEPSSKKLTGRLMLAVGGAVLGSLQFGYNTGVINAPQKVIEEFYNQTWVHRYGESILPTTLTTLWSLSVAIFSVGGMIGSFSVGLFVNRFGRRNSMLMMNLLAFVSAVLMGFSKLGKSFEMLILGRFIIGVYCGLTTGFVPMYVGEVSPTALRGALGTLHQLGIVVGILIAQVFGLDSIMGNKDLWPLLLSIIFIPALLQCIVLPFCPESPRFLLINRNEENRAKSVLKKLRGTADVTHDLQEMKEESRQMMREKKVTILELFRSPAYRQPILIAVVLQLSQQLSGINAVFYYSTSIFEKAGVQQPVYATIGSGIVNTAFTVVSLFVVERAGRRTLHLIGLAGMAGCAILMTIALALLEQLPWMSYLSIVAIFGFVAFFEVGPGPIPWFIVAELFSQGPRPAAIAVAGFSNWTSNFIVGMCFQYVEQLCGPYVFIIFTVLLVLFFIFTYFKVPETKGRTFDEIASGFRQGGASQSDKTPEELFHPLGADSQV
The assay is described as follows: flow cytometry, transfected HEK-293T. On the procedure: (§1) HEK-293T cells were transfected by CaPO₄ with plasmids in 6-well culture plates (Falcon) at 750,000 cells/well. At 48 hours post transfection, cells were stained with anti-V5 and anti-GLUT4 MAbs (purified scFv, 2 μg/ml) followed by biotinylated goat anti-mouse or human antibody (1:500) and streptavidin-PerCP (1:500). Fluorescence was detected using an Intellicyt high-throughput flow cytometer (HTFC; Intellicyt, Albuquerque, N. Mex.). For cell permeabilization, cells were treated with saponin at 0.1% in PBS for 20 minutes. To discriminate intact (live) and permeabilized (dead) cells without the use of detergent, propidium iodide (PI) was added to HEK-293T cells at 1 ug/ml just prior to flow cytometry. Where indicated, cytochalasin B (Sigma) was used at a final concentration of 10 uM and phloretin (Sigma) was used at a final concentration of 100 uM, each added in 10% NGS for 30 minutes prior to antibody staining as well as included with the primary antibody.

Assay [4] deals with T4, mouse GLUT1 (mmGLUT1) (mouse, UniProt P17809 1-492).
T4 construct: whole, on cells
T4 sequence (looked up): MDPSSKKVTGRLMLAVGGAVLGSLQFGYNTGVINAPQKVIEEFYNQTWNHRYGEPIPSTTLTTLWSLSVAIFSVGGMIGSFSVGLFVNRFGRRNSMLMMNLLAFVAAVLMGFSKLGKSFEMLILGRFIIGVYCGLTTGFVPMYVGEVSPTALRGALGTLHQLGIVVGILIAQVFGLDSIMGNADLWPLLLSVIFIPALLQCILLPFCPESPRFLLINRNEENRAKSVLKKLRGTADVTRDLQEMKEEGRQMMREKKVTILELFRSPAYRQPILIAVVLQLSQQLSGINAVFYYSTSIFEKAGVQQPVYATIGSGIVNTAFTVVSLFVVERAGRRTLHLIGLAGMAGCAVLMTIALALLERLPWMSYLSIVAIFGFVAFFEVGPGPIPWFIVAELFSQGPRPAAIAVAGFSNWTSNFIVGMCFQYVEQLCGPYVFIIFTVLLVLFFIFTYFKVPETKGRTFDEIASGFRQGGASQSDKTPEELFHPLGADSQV
As to the kind of experiment: flow cytometry, transfected HEK-293T. On the procedure:
as §1

Take 1F8 (antibody): the figures for the % of binding to wild type GLUT4 in assay [1] and in assay [2] were 91% and 101%, respectively.

B1: AB108 (Fc fusion)
scFv: ALTQPSSVSANLGGTVKITCSGSSGSYGWYQQKAPGSAPVTLIYRNDKRPSDIPSRFSGSESGSTGTLTITGVQAEDEAVYFCGGYDSSAGYAAFGAGTTLTVLGQSSRSSGGGGSSGGGGSAVTLDESGGGLQTPGGALSLVCKASGFTFSSHGMGWVRQAPGKGLEWVGSISTGRYTFYAPAVKGRATISRDNGQSTLRLQLNNLRAEDTGTYYCTKCAGLNGCGGGEIDAWGHGTEVIVSS
notes: Bivalent scFv-Fc; also called MAb AB108; not shown: Fc fragment of human IgG1, cloned in frame with the scFv
As to B1, the binding result in assay [3] and in assay [4] was “no binding (tested: 2 µg/ml)” throughout. Further, the “% of binding to wild type GLUT4” value in assay [1] is 78%; in assay [2], 67%.

B2: AB111 (Fc fusion)
scFv: ALTQPSSVSANPGETVKITCSGSGSWYGWFQQKSPGSAPVTVIYSNDKRPSDIPSRFSGSKSGSTSTLTITGVQVEDEAVYYCGNWDIFGAGTTLTVLGQSSRSSGGGGSSGGGGSAVTLDESGGGLQTPGGALSLVCKASGFTFSSHGMGWVRQAPGKGLEWVASISTGRYTFYAPAVKGRATISRDNGQSTVRLQLNNLRAEDTATYYCTKCAGLNGCGGGEIDAWGHGTEVIVSS
notes: Bivalent scFv-Fc; also called MAb AB111; not shown: Fc fragment of human IgG1, cloned in frame with the scFv
In the case of B2, the binding result in assay [3] and in assay [4] was “no binding (tested: 2 µg/ml)” throughout. Also, the “% of binding to wild type GLUT4” value amounted to 125% in assay [1] and 154% in assay [2].

B3: AB105 (Fc fusion)
scFv: ALTQPSSVSANPGETVEITCSGDSSYYGWYQQKSPGSAPVTVIYANTNRPSDIPSRFSGSASGSTATLTITGVQAEDEAVYYCGSADSTYAGIFGAGTTLTVLGQSSRSSGGGGSSGGGGSAVTLDESGGGLQTPGGALSLICKASGFTFSSYTMNWVRQAPGKGLEWVGVISNSGRTTNYGAAVQGRATISRDNGQSTVRLQLNNLRAEDTGTYYCAKSSASASCAWWAGRSYPCSANRIDAWGHGTEVIVSS
notes: Bivalent scFv-Fc; also called MAb AB105; not shown: Fc fragment of human IgG1, cloned in frame with the scFv
Turning to B3, the binding result in assay [3] and in assay [4] was “no binding (tested: 2 µg/ml)” throughout. In addition, in assay [1], the % of binding to wild type GLUT4 came out at 16%.

B4: AB101 (scFv)
scFv: ALTQPSSVSANPGETVKITCSGSSNSYGWYQQKSPGSAPVTVIYYNDKRPSDIPSRFSGSKSDSTHTLTITGVRAEDEAVYFCGSYDSTYVGIFGAGTTLTVLGQSSRSSGGGGSSGGGGSAVTLDESGGGLQTPGGTLSLVCKASGFTFSSNAMGWVRQAPGKGLEWVAGISSDGRYTKYGSAVKGRATISRDNGQSTVRLQLNNLRAEDTGTYFCAKAFGNNYRRIYAGQIDAWGHGTEVIVSS
notes: Chicken-derived clone used as a control; the four lead clones were tested as scFv-human IgG1 Fc; also called MAb AB101
For the molecule B4, the “% of binding to wild type GLUT4” value in assay [1] is 96%; in assay [2] it was 110%.
